This is an account of results in US20210155670A1, “SYSTEMS AND METHODS FOR THE PREPARATION OF PEPTIDE-MHC-I COMPLEXES WITH NATIVE GLYCAN MODIFICATIONS” (The Regents of the University of California, priority 2019, published 2021).

The target in this experiment is T cell receptor specific for HLA-A*02:01/NYESO, on Jurkat cells / NY-ESO-1 specific T cell line. In words: flow cytometry, PE tetramer staining; the negative cells are said to have lost the TCR. For orientation: Flow cytometry measures light scatter and fluorescence of single cells or particles in a stream.

As to “CHO-derived PE-HLA-A*02:01 tetramer loaded with NY-ESO-1 peptide (single-chain complex, TAPBPR-exchanged) (peptide-MHC)”, the tetramer-negative population of cells was 9%.
For “conventionally refolded NYESO/HLA-A*02:01 tetramer (from UniProt P61769 21-119) (peptide-MHC)”, the tetramer-negative population of cells came out at 9%.
